The values that follow come from publication PMC4526114, “Structure and vascular function of MEKK3–cerebral cavernous malformations 2 complex” (Nature Communications, 2015).

Holding throughout (conditions): both partners purified
Experiment [1] addresses T1, MEKK3^NPB1 (human, UniProt Q99759 1-124).
T1 construct: MEKK3 (MAP3K3), human, residues 1–124 (N-terminal helix and PB1 domain); also called N terminus of MEKK3; 6 × His–MEKK3^NPB1 (before cleavage); not shown: His6, N-terminal, cleaved
T1 sequence: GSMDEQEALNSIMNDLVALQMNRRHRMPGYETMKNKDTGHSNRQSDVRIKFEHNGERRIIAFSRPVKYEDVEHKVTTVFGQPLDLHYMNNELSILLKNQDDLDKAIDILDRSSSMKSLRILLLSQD
Description: SEC-MALS; CCM2^HHD:MEKK3^NPB1 complex used for crystallization, 100 μl of 1.5 mg ml^-1 in 150 mM NaCl, 20 mM Tris pH 8.0, 0.02% sodium azide.

The target of experiment [2] is T1, MEKK3^NPB1. Description: ITC; CCM2^HHD injected into MEKK3^NPB1 in 20 2.5-μl injections at 25 °C; 150 mM NaCl, 50 mM HEPES pH 7.5; nano-ITC; 'observed Kd'.
The target of another experiment is T2, CCM2^FL (human, UniProt Q9BSQ5 1-438).
T2 construct: CCM2, human, residues 1–438; also called full-length CCM2; CCM2^FL: 1–438; source: purified; not shown: His tag, N-terminal, cleaved
Description: pull-down; GST fusions of MEKK3 immobilised on glutathione Sepharose-4B beads; 5 μl bead slurry and 60 μg purified CCM2 in 500 μl, 4 °C, 2 h; 150 mM NaCl, 50 mM Tris pH 7.5, 0.1% Triton-X100; Coomassie-stained SDS–PAGE of washed beads.

T2 sequence (Q9BSQ5 other isoform, or with tags, fused parts or gaps): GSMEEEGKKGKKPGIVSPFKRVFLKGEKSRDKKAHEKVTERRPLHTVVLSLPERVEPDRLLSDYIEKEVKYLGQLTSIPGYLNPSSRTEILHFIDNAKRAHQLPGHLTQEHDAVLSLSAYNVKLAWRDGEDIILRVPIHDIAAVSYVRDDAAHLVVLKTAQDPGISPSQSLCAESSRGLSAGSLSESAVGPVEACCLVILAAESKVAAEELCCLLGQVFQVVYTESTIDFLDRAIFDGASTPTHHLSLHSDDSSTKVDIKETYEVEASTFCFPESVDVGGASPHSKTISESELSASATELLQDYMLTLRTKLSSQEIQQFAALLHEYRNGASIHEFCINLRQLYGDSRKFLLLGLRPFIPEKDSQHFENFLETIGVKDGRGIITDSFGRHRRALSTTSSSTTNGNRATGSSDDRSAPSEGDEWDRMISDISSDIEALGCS

B1: CCM2^HHD (domain or fragment, human)
chain: GSSKTISESELSASATELLQDYMLTLRTKLSSQEIQQFAALLHEYRNGASIHEFCINLRQLYGDSRKFLLLGLRPFIPEKDSQHFENFLETIGVKDGRG
notes: CCM2, human, residues 283–379 (harmonin homology domain); also called CCM2 harmonin homology domain; CCM2^HHD: 283–379; source: E. coli Rosetta (DE3), purified (HisTrap, TEV cleavage, size exclusion); not shown: His6, N-terminal, cleaved
For B1, the “stoichiometry N” value with MEKK3^NPB1 [1] is 1. Further, binding with MEKK3^NPB1 [2] was put at a Kd of 1400 ± 400 nM.

B2: GST–MEKK3^NPB1 (domain or fragment, human, UniProt Q99759 1-124, looked up)
chain: MDEQEALNSIMNDLVALQMNRRHRMPGYETMKNKDTGHSNRQSDVRIKFEHNGERRIIAFSRPVKYEDVEHKVTTVFGQPLDLHYMNNELSILLKNQDDLDKAIDILDRSSSMKSLRILLLSQD
notes: MEKK3 (MAP3K3), human, residues 1–124 (N-terminal helix and PB1 domain); GST-pCDF vector; also called GST–MEKK3^NPB1: 1–124
As to B2, the binding result in the experiment with CCM2^FL is “binds”.
